Assay results: publication PMC4431665
Values belong to the substance of their own block, whether it stands above or below them.

How the values were obtained:
[1] = molecular target: Hsp70 E. coli T504E phosphomimic variant (human) (UniProt P0DMV8); test: native MS; labeled wild-type Hsp70 E. coli and the T504E variant examined in a 1:1 ratio (Figure S1C)
[2] = molecular target: Hsp70 E. coli V438F/T504E substrate-binding-deficient variant (human) (UniProt P0DMV8); test: not stated; dimerization of the V438F/T504E mutant (Figure S4B); method not given
Hsp70 = test: comparative BS3 cross-linking with LC-MS/MS; conditions: reference: Hsp70 expressed in E. coli; sites T504
[3] = molecular target: Hsp70 expressed in E. coli (Hsp70 E. coli) (human) (UniProt P0DMV8); test: native MS; Hsp70 E. coli at a higher concentration under which dimerization occurs, with phosphatase, 48 hr (Figures S1A and S1B)
[4] = molecular target: Hsp70 expressed in E. coli (Hsp70 E. coli) (human) (UniProt P0DMV8); test: native MS; 1:1 mixture of 13C-labeled Hsp70 E. coli and Hsp70Sf9 at 8 μM; parameters designed to preserve non-covalent interactions
[5] = molecular target: Hsp70 expressed in E. coli (Hsp70 E. coli) (human) (UniProt P0DMV8); test: native MS; 1:1 ratio of 13C-labeled Hsp70 E. coli and Hsp70Sf9 with catalytic amounts of Hsp40 and ATP
[6] = molecular target: Hsp70 expressed in Sf9 insect cells (Hsp70Sf9) (human) (UniProt P0DMV8); test: cross-linking; BS3 on Hsp70Sf9 in excess ATP (also ADP, ATPγS); SDS-PAGE, monomer and dimer bands digested with trypsin, LC-MS/MS
[7] = molecular target: Hsp90_(2)Hop complex (human) (UniProt P07900); test: native MS; Hsp90 and Hop with either Hsp70 E. coli or Hsp70Sf9, in the absence of Hsp40
[8] = molecular target: Hsp70 expressed in Sf9 insect cells (Hsp70Sf9) (human) (UniProt P0DMV8); test: native MS; 1:1 mixture of 13C-labeled Hsp70 E. coli and Hsp70Sf9 at 8 μM; parameters designed to preserve non-covalent interactions
[9] = molecular target: Hsp70 expressed in Sf9 insect cells (Hsp70Sf9) (human) (UniProt P0DMV8); test: native MS; 1:1 mixture of 3 μM 13C-labeled Hsp70 E. coli and Hsp70Sf9, incubated without phosphatase in 100 mM AmAc pH 7.5 at 4°C for 16 hr; high backing pressure
[10] = molecular target: Hsp70 expressed in Sf9 insect cells (Hsp70Sf9) (human) (UniProt P0DMV8); test: native MS; 2 μM Hsp70Sf9, 0.5 μM Hsp40, 200 μM ATP/Mg2+, binding buffer with 50, 100 or 300 mM KCl, 1 hr at room temperature; buffer exchanged to 100 mM AmAc
[11] = molecular target: Hsp70 expressed in Sf9 insect cells (Hsp70Sf9) (human) (UniProt P0DMV8); test: native MS; 1:1 ratio of 13C-labeled Hsp70 E. coli and Hsp70Sf9 with catalytic amounts of Hsp40 and ATP
Hsp90 (human) [12] = molecular target: Hsp90 (human) (UniProt P07900); test: native MS; stoichiometric amounts of p23 added to the client-loading complex Hsp90_(2)Hsp70_(2)HopGR
Hsp90 (human) [13] = molecular target: Hsp90 (human) (UniProt P07900); test: native MS; Hsp90 and Hop with either Hsp70 E. coli or Hsp70Sf9, in the absence of Hsp40
Hsp90 (human) [14] = molecular target: Hsp90 (human) (UniProt P07900); test: native MS; Hsp70GR complex formed with catalytic Hsp40 (0.3 μM) and ATP, then incubated with Hsp90_(2)Hop; Hsp90, Hop, Hsp70 and GR equimolar (1 μM each), or two Hsp70 per Hsp90_(2)
Yeast Hsp40 (yeast) = Yeast Hsp40 (yeast) (UniProt P25491); test: native MS; Hsp40 alone, 100 mM ammonium acetate pH 7.5 (Figure S5C)

Substance: Hsp70 E. coli V438F/T504E substrate-binding-deficient variant (from UniProt P0DMV8 1-641) (natural protein)
stoichiometry N [2]: 2

Substance: Hsp70 Hsp70 expressed in Sf9 cells
other: K569-K108 cross-link intensity ratio (Hsp70): stronger; reference 1.0

Substance: Hsp70 expressed in E. coli (Hsp70 E. coli) (from UniProt P0DMV8 1-641) (natural protein)
stoichiometry N [3]: 2
stoichiometry N [4]: 2
stoichiometry N [5]: 2

Substance: Hsp70 expressed in Sf9 insect cells (Hsp70Sf9) (from UniProt P0DMV8 1-641) (natural protein)
stoichiometry N [6]: 2
stoichiometry N [7]: 2
stoichiometry N [8]: 2
stoichiometry N [9]: 2
stoichiometry N [10]: 2
stoichiometry N [11]: 2

Results, then the substance that gave them:

stoichiometry N [1]: 2
Substance: Hsp70 E. coli T504E phosphomimic variant (from UniProt P0DMV8 1-641) (natural protein)

stoichiometry N (Hsp90 (human) [12]): 2
stoichiometry N (Hsp90 (human) [13]): 2
stoichiometry N (Hsp90 (human) [14]): 2
Substance: Hsp90 (from UniProt P07900 1-732) (natural protein)

stoichiometry N (Yeast Hsp40 (yeast)): 2
Substance: Yeast Hsp40 (from UniProt P25491 1-409) (natural protein)
